Consider two substances from paper PMC2928010.

The target in test [1] is RNC–SRP: coumarin-labeled SRP C235 loaded with ribosome–nascent chain complex (E. coli) (UniProt P0AGD7). Kind of test: FRET or BRET. For orientation: In BRET a luciferase serves as donor, and the signal depends on an acceptor being close.
Test [2] shares this target. Kind of test: FRET or BRET. This is another data set of the same source.
Test [3] has as its target acrylodan-labeled FtsY C356 (E. coli) (UniProt P10121). Kind of test: other fluorescence titration.
Test [4] shares this target. Kind of test: other fluorescence titration. The source holds these as a separate data set.

Usually Kd stands for a measure of binding affinity in units of concentration.

Read-outs that look alike come from different tables or passages of the source. Some results are limits rather than exact numbers.

Take “BODIPY-fluorescein–labeled FtsY C487 (from UniProt P10121 1-497) (receptor)”: the Kd amounted to 68 nM in test [1] and 104 nM in test [2].

Turning to “signal recognition particle (SRP): Ffh with 4.5S RNA (from UniProt P0AGD7 1-453) (complex)”, the Kd in test [3] was 145 nM; in test [4] it was less than 4 nM.
